Assay results reported in US20190382462A1, “METHODS AND COMPOSITIONS FOR TREATING HPA HYPERACTIVITY” (priority 2017, published 2019).
Positions count from the first letter of the chain named. In names and notes the source's numbering stands. Like-named read-outs stand apart in the source and are kept apart here.

What was measured:
[1] = test system: corticosterone (CORT); experiment: Serum corticosterone (CORT) under repeated footshock stress; assay type: in vivo; conditions: single administration 45 μg/mouse, C57Bl6 mice
Experimental: FIG. 3: Administration of a CRF-BP-Fc fusion (SEQ ID NO: 16) delayed the increased in basal serum glucocorticoid levels (“CORT” in pg/mL×1000), resulting from repeated stress. Repeated delivery of footshock to mice (dotted vertical lines indicate times for delivery of footshock) results in elevated baseline serum corticosterone (CORT) level in C57B16 mice (black circles), indicative of a chronic stress state. A single administration of CRF-BP-Fc fusion protein at a dose of 45 μg/mouse delayed such increase of baseline serum CORT (black squares). O=vehicle-treated mice; 45=CRF-BP-Fc-treated mice at 45 μg/mouse; *=p<0.05 from […]; CORT: plasma corticosterone levels (ng/ml).
CRFBP-Fc fusion protein was administered to C57B16 mice at a dose of 300 μg/mouse. Data points represent CORT concentration before and after injection of CRFBP-Fc containing IgG2-derived Fc (drug) and at 3 time points preceding repeated footshocks (FS). […] 3 hr after injection compared to vehicle group (**p<0.01, Fisher's LSD).
Stimulated CORT concentrations after injection of CRFBP-Fc containing IgG2-derived Fc and at 3 time points after repeated footshocks (FS). […] 3 hr after injection, FS1, and FS2 compared to vehicle group, respectively (*p<0.05, ****p<0.0001, Fisher's LSD). […]

[2] = molecular target: T1, CRF (Homo sapiens, UniProt P06850); experiment: CRF binding ELISA (biotinylated CRF on avidin-coated plate); conditions: data not shown
T1 construct: Biotinylated CRF was immobilized on an avidin-coated ELISA plate
T1 sequence (P06850 154-194 limits assumed): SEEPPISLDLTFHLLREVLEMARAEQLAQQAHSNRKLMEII
From the text: Biotinylated CRF was immobilized on an avidin-coated ELISA plate. […] OD=optical density.

[3] = test system: C57BL/6J mice; experiment: Shock-induced freezing test (mild footshock stress model); assay type: in vivo, mouse
Experimental: (§1) FIG. 2A and FIG. 2B: Serum concentration of CRF-BP-Fc. FIG. 2A: A CRF-BP-Fc fusion protein (SEQ ID NO:16), composed of CRF-BP (25-322) fused to mouse IgG1 Fc was administered to C57B16 mice at 2 doses (15 μg/mouse and 45 μg/mouse). […] FIG. 2B: Freezing in response to mild footshock, a mouse model of stress, was reduced in mice treated with the CRF-BP-Fc fusion protein on the day of treatment (*<0.05 from vehicle-treated mice).
SIF is a defensive behavior observed in response to fearful stimuli exposure (163), and it is used to determine the efficacy of the constructs under study (FIG. 1B). Testing takes place in a Mouse NIR Video Fear Conditioning System (Med Associates, St. Albans, Vt.) housed in soundproof boxes. The session consists of a 2-min habituation period followed by three 1.5 mA footshocks lasting 1 sec and separated by 20 sec. Duration of freezing behavior is measured for 15 min. Freezing behavior, i.e., the absence of all voluntary movements except breathing, is measured in all sessions by real-time digital video recordings calibrated to distinguish between subtle movements such as whisker twitch or tail flick and freezing behavior. This test is performed at days 1 and 4 after administration. Before and after footshock, mice are bled as outlined above for determination of serum corticosterone and compound levels. […]

[4] = Single-dose serum pharmacokinetics of CRF-BP-Fc in mice (sandwich ELISA); assay type: in vivo, mouse; conditions: two doses (15 and 45 μg) in mice
Experimental: as §1
Mice are bled at 1, 6, and 12 hours and at 1, 2, 4, 6, 8, and 12 days post-injection by retro-orbital bleeding. […] The present blood sampling times presuppose a half-life value closer to those reported for human IgG in the mouse.
Concentrations in sera over time of CRF-BP-Fc or CRF-BP-albumin constructs are measured with a sandwich ELISA, which has already been established with a lower limit of detection of 1 ng/ml in serum. This ELISA assay consists of immobilized biotinylated CRF to capture serum CRF-BP-Fc on avidin plates followed by detection with a commercial anti-Fc antibody. This assay is used to monitor the serum concentration of CRF-BP-Fc in preliminary studies. CRF-BP-albumin constructs are detected with the same design using antibodies to albumin and blocking reagents designed for albumin ELISA quantification (e.g., Serum Albumin Sandwich ELISA Kit from LifeSpan BioSciences). […]

[5] = humans; cited from earlier work
[6] = molecular target: T1, CRF; conditions: cited from earlier work
[7] = molecular target: T2, Ucn1 (Homo sapiens, UniProt P55089); conditions: cited from earlier work
T2 construct: the related peptide urocortin 1 (Ucn1)
T2 sequence (P55089 83-122 limits assumed): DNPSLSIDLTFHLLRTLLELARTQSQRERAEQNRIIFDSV

[8] = molecular target: T3, rUcn 1 (Rattus norvegicus, UniProt P55090); conditions: cited from earlier work; for loss of affinity for rUcn 1: alanine mutants of CRF-BP
T3 sequence (P55090 81-120 limits assumed): T2 sequence (P55089 83-122 limits assumed) with N2D, S4P

[9] = molecular target: T4, r/hCRF (Homo sapiens, UniProt P06850); conditions: cited from earlier work; for loss of affinity for r/hCRF: alanine mutants of CRF-BP
T4 sequence (P06850 154-194 limits assumed): T1 sequence (P06850 154-194 limits assumed)

B1: CRF-BP-Fc (SEQ ID NO:16): fusion protein composed of CRF-BP (25-322) fused to mouse IgG1 Fc (protein, listed as Mus musculus)
chain: MSPNFKLQCHFILIFLTALRGESRYLELREAADYDPFLLFSANLKRELAGEQPYRRALRCLDMLSLQGQFTFTADRPQLHCAAFFISEPEEFITIHYDQVSIDCQGGDFLKVFDGWILKGEKFPSSQDHPLPSAERYIDFCESGLSRRSIRSSQNVAMIFFRVHEPGNGFTLTIKTDPNLFPCNVISQTPNGKFTLVVPHQHRNCSFSIIYPVVIKISDLTLGHVNGLQLKKSSAGCEGIGDFVELLGGTGLDPSKMTPLADLCYPFHGPAQMKVGCDNTVVRMVSSGKHVNRVTFEYRQLEPYELENPNGNSIGEFCLSGLTGGCKPCICTVPEVSSVFIFPPKPKDVLTITLTPKVTCVVVDISKDDPEVQFSWFVDDVEVHTAQTQPREEQFNSTFRSVSELPIMHQDWLNGKEFKCRVNSAAFPAPIEKTISKTKGRPKAPQVYTIPPPKEQMAKDKVSLTCMITDFFPEDITVEWQWNGQPAENYKNTQPIMDTDGSYFVYSKLNVQKSNWEAGNTFTCSVLHEGLHNHHTEKSLSHSPGK
Which results are given for B1?
increase in basal serum glucocorticoid (CORT) levels resulting from repeated stress [1]: delayed; effect of fusion to mouse IgG1 Fc on CRF binding [2]: did not alter CRF binding; circulating serum concentrations effective in reducing behavioral responses to stress ([3]; mice): 1 to 3 µg/mL; freezing in response to mild footshock ([3]; single administration, day of treatment, vs vehicle-treated mice): reduced; pharmacokinetic profile from serum concentrations [4]: linear pharmacokinetics with a biexponential profile

B2: CRF-BP: binding protein that specifically binds to CRF (protein, UniProt P24387 25-322, looked up)
Corticotropin-releasing …: YLELREAADYDPFLLFSANLKRELAGEQPYRRALRCLDMLSLQGQFTFTADRPQLHCAAFFISEPEEFITIHYDQVSIDCQGGDFLKVFDGWILKGEKFPSSQDHPLPSAERYIDFCESGLSRRSIRSSQNVAMIFFRVHEPGNGFTLTIKTDPNLFPCNVISQTPNGKFTLVVPHQHRNCSFSIIYPVVIKISDLTLGHVNGLQLKKSSAGCEGIGDFVELLGGTGLDPSKMTPLADLCYPFHGPAQMKVGCDNTVVRMVSSGKHVNRVTFEYRQLEPYELENPNGNSIGEFCLSGL
Which results are given for B2?
plasma half-life [5]: minutes; Kd ([6]; range printed without naming the ligand, read-out: KD (high affinity of CRF-BP)): 0.1 to 0.2 nM; Kd ([6]; read-out: KD for CRF): 0.2 nM; Kd [7]: 0.1 nM

B3: CRF-BPC277A/C318A: CRF-BP derivative lacking the cysteines of the fifth disulfide bridge (C277/C318) (protein, UniProt P24387 25-322, looked up, variant C277A C318A)
Corticotropin-releasing …: B2 Corticotropin-releasing … with C253A, C294A
Which results are given for B3?
affinity for rUcn 1 compared with WT CRF-BP [8]: indistinguishable from that of WT CRF-BP; affinity for r/hCRF compared with WT CRF-BP [9]: indistinguishable from that of WT CRF-BP

B4: W116A: CRF-BP alanine mutant (protein, UniProt P24387 25-322, looked up, variant W116A)
Corticotropin-releasing …: B2 Corticotropin-releasing … with W92A
With B4 as the molecule, how does the “loss of affinity for rUcn 1” value [8] read?
Its value is “complete”.

What about the “loss of affinity for r/hCRF” value [9] of the same molecule?
Its value is “complete”.

B5: CRFBPC237A/C264A: CRF-BP derivative lacking the cysteines of the fourth disulfide bridge (C237/C264) (protein, UniProt P24387 25-322, looked up, variant C237A C264A)
Corticotropin-releasing …: B2 Corticotropin-releasing … with C213A, C240A
Which results are given for B5?
affinity for rUcn 1 compared with WT CRF-BP [8]: indistinguishable from that of WT CRF-BP; affinity for r/hCRF compared with WT CRF-BP [9]: indistinguishable from that of WT CRF-BP

B6: E121A: CRF-BP alanine mutant (protein, UniProt P24387 25-322, looked up, variant E121A)
Corticotropin-releasing …: B2 Corticotropin-releasing … with E97A
Which “loss of affinity for rUcn 1” value [8] does the source give for B6 here?
Its value is “partial”.

What about the “loss of affinity for r/hCRF” value [9] of the same molecule?
The value was “partial”.

B7: Y211A: CRF-BP alanine mutant (protein, UniProt P24387 25-322, looked up, variant Y211A)
Corticotropin-releasing …: B2 Corticotropin-releasing … with Y187A
What does the source list for B7?
loss of affinity for rUcn 1 [8]: complete; loss of affinity for r/hCRF [9]: complete

B8: L61A: CRF-BP alanine mutant (protein, UniProt P24387 25-322, looked up, variant L61A)
Corticotropin-releasing …: B2 Corticotropin-releasing … with L37A
Which “loss of affinity for rUcn 1” value [8] does the source give for B8 here?
The value was “partial”.

And the “loss of affinity for r/hCRF” value [9]?
The value was “partial”.

B9: Q188A: CRF-BP alanine mutant (protein, UniProt P24387 25-322, looked up, variant Q188A)
Corticotropin-releasing …: B2 Corticotropin-releasing … with Q164A
What does the source list for B9?
loss of affinity for rUcn 1 [8]: partial; loss of affinity for r/hCRF [9]: partial

B10: F123A: CRF-BP alanine mutant (protein, UniProt P24387 25-322, looked up, variant F123A)
Corticotropin-releasing …: B2 Corticotropin-releasing … with F99A
For B10, which “loss of affinity for rUcn 1” value [8] is on record?
Its value is “partial”.

What about the “loss of affinity for r/hCRF” value [9] of the same molecule?
The value was “partial”.
